T1: full length human TL1A expressed on HEK293 cells (human, UniProt O95150 1-251)
T1 construct: also called HEK293/hTL1A; cell-surface hTL1A
T1 sequence: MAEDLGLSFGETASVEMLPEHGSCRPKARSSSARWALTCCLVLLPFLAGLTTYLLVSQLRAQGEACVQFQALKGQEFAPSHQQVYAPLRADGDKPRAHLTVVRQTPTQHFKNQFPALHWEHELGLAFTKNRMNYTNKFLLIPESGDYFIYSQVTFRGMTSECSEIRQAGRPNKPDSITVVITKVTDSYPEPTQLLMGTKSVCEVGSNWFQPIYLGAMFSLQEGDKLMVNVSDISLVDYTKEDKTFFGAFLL

T2: full length rat TL1A expressed on HEK293 cells (rat, UniProt Q8K3Y7 1-252)
T2 sequence: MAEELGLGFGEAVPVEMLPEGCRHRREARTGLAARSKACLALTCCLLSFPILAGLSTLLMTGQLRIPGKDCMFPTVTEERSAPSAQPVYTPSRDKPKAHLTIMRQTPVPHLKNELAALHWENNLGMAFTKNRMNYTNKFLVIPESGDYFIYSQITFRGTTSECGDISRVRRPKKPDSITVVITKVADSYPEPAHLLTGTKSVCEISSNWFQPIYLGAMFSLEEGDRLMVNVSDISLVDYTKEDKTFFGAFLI

T3: human TL1A, soluble, CHO-expressed, residues 72-251 of SEQ ID NO:244 with N-terminal His6-tag (human, UniProt O95150 72-251)
T3 sequence: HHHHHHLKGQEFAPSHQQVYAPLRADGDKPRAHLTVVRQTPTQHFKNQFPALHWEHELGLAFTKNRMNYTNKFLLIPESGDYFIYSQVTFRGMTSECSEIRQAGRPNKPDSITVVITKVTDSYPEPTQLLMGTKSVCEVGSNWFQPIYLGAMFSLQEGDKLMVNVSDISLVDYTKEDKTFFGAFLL


Experiments:
[1] = molecular target: T1, full length human TL1A expressed on …; assay: flow, HEK293/hTL1A, mAb 0.1 ug/ml + 0.03 ug/ml soluble hTL1A
Protocol: (§1) Human embryonic kidney 293 cells stably transfected to over-express cell-surface hTL1A were first stained in a flow cytometric experiment with eight anti-hTL1A antibodies at four concentrations (1, 0.1, 0.01, and 0.003 μg/ml). […] The lowest antibody concentration providing significant staining levels was then used in a competition binding experiment. A negative isotype control antibody (human IgG4) was used at 1 μg/ml to define the background signal. For the competition experiment, eight antibody samples, at the minimal concentrations identified above, were first treated with soluble hTL1A expressed from CHO cells at concentrations ranging from 0.03 μg/ml to 10 μg/ml. After pre-incubation for 30 min on ice, the antibody/hTL1A mixture was added to 293/HEK-hTL1A cells that had been isolated by centrifugation in a 96-well conical plate. After incubation for an additional 10 minutes on ice, the cells were washed. The secondary reagent, anti-h Fcγ-APC F(ab′)₂, was added to all wells at a 200-fold dilution to detect bound antibodies. Samples were incubated for 15 minutes on ice, away from light, and then washed. Cells were processed on an BD™ LSR II Flow Cytometer (BD Biosciences) to detect anti-hTL1A antibodies bound to the cell surface, and data were analyzed using FlowJo software (version 8.8.6; Tree Star Inc.). Maximum signal: Anti-hTL1A antibody binding in the absence of soluble hTL1A; Minimum signal: Signal recorded when […] of isotype control antibody was added in place of the anti-hTL1A antibody. NT: Not tested.

[2] = molecular target: T1, full length human TL1A expressed on …; assay: flow, HEK293/hTL1A, mAb 0.1 ug/ml + 1 ug/ml soluble hTL1A
Protocol: as §1

[3] = molecular target: T2, full length rat TL1A expressed on …; assay: cell-based or functional assay
[4] = molecular target: T3, human TL1A, soluble, CHO-expressed, …; assay: cell-based or functional assay
[5] = molecular target: T1, full length human TL1A expressed on …; assay: flow, HEK293/hTL1A, mAb 1 ug/ml + 0.3 ug/ml soluble hTL1A
Protocol: as §1

[6] = molecular target: T1, full length human TL1A expressed on …; assay: flow, HEK293/hTL1A, mAb 1 ug/ml + 1 ug/ml soluble hTL1A
Protocol: as §1

[7] = molecular target: T1, full length human TL1A expressed on …; assay: flow, HEK293/hTL1A, mAb 1 ug/ml + 0.1 ug/ml soluble hTL1A
Protocol: as §1

[8] = molecular target: T1, full length human TL1A expressed on …; assay: flow, HEK293/hTL1A, mAb 1 ug/ml, no soluble hTL1A (maximum signal)
Protocol: as §1

| Binder | MFI [1] | MFI [2] | % Blocking IFN-g, D1, 1 ug/ml mAb [4] | % Blocking IFN-g, D1, 3 ug/ml mAb [4] | % Blocking IFN-g, D2, 1 ug/ml mAb [4] | % Blocking IFN-g, D2, 3 ug/ml mAb [4] | % Blocking IFN-g, D3, 1 ug/ml mAb [4] | % Blocking IFN-g, D3, 3 ug/ml mAb [4] | % Blocking IFN-g, D4, 1 ug/ml mAb [4] | % Blocking IFN-g, D4, 3 ug/ml mAb [4] | % Blocking IFN-g, D5, 1 ug/ml mAb [4] | % Blocking IFN-g, D5, 3 ug/ml mAb [4] | % Blocking IFN-g, D6, 1 ug/ml mAb [4] | % Blocking IFN-g, D6, 3 ug/ml mAb [4] | % Blocking IFN-g, D7, 1 ug/ml mAb [4] | % Blocking IFN-g, D7, 3 ug/ml mAb [4] | % Blocking IFN-g, D8, 1 ug/ml mAb [4] | % Blocking IFN-g, D8, 3 ug/ml mAb [4] | % Blocking IFN-g, D9, 1 ug/ml mAb [4] | % Blocking IFN-g, D9, 3 ug/ml mAb [4] | also measured |
| --- | --- | --- | --- | --- | --- | --- | --- | --- | --- | --- | --- | --- | --- | --- | --- | --- | --- | --- | --- | --- | --- |
| H4H1704N (antibody, human IgG4 S228P, V domains shown, human IgG4(S108P) form of H2M1704N) VH: EVQLVESGGGLVQPGGSLRLSCAVSGFTFSSYWMSWVRQAPGKGLEWVANIKEDGSEKNYVDSVKGRFTLSSDNAKNSLYLQMNSLRAEDTAVYYCAREDYDSYYKYGMDVWGQGTAVIVSS VL: not shown | 163 | 26 | – | – | – | – | – | – | – | – | – | – | – | – | – | – | – | – | – | – | – |
| H4H1725P (antibody, human IgG4 S228P, V domains shown) VH: QVQLVQSGAEVKKPGASVKVSCKASGYTFTGYYMHWVRQAPGQGLEWMGWIKPKSGGTNYVQKFQGRVTMTRDTSINTAYMELNNLKSDDTAVYYCATGGSQDASDFWGQGTMVTVSS VL: DIQMTQSPSSVSASVGGRVTITCRASQDISIWLAWYQQKPGKAPNLLIYAASSLQSGVPSRFSGSGSGTDFTLTISSLQPEDFATYYCQQADSFPLTFGGGTKVEIK | 207 | 29.2 | 90% | 95% | 100% | 100% | 70% | 95% | 85% | 100% | 45% | 90% | 80% | 80% | 60% | 90% | 85% | 100% | 50% | 90% | IC50, reporter + 10,000 TL1A cells [3]: 190 nM; % Blocking IFN-g, D10, 1 ug/ml mAb [4]: 95%; % Blocking IFN-g, D10, 3 ug/ml mAb [4]: 100% |
| H4H1805N (antibody, human IgG4 S228P, V domains shown, human IgG4(S108P) form of H2M1805N) VH: QVQLQQWGAGLLKPSETLSLTCAVYGGSFTGFYWSWIRQPPGKGLEWIGEINHRGNTNYNPSLKSRVTMSVDTSKNQFSLNMISVTAADTAMYFCASPFYDFWSGSDYWGQGTLVTVSS VL: DIMLTQTPLTSPVTLGQPASISCKSSQSLVHSDGNTYLSWLQQRPGQPPRLLFYKISNRFSGVPDRFSGSGAGTDFTLKISRVEAEDVGVYYCMQATQFPLTFGGGTKVEIK | 156 | 25.1 | 100% | 100% | 100% | 100% | 90% | 95% | 100% | 100% | 100% | 80% | 100% | 100% | 100% | 100% | 100% | 100% | 90% | 70% | % Blocking IFN-g, D10, 1 ug/ml mAb [4]: 100%; % Blocking IFN-g, D10, 3 ug/ml mAb [4]: 100% |
| H4H1681N (antibody, human IgG4 S228P, V domains shown) VH: EVQLLESGGGLVQPGKSLRLSCAVSGFTFSTYGMNWVRQAPGKGLEWVSSISGTGRTTYHADSVQGRFTVSRDNSKNILYLQMNSLRADDTAVYFCTKERGDYYYGVFDYWGQGTLVTVSS VL: DIQMTQSPSTLSASVGDRVTITCRASQTISSWLAWYQQTPEKAPKLLIYAASNLQSGVPSRFSGSGSGTEFTLTISSLQPDDFATYYCQQYHRSWTFGQGTKVEIT | – | – | – | – | – | – | – | – | – | – | – | – | – | – | – | – | – | – | – | – | MFI [5]: 236; MFI [6]: 80.9; MFI [7]: 327; MFI [8]: 320 |
| H4H1742P (antibody, human IgG4 S228P, V domains shown) VH: EVQLVESGGGLVQPGGSLRLSCAASGFTFSNYVMNWVRQAPGKGLEWVSVISGSGGSTHYADSVKGRFTISRDNSKDALYLQMNSLRAEDTAVYYCAKGPLEAYYYYNGMDVWGQGTTVTVSS VL: DIQLTQSPSFLSASVGDRVTITCWASQAISSYLAWYQHKPGRAPKLLIYSTSTLQSGVPSRFSGSGSGTEFTLTISSLQPEDFATYYCQQLNSYPTFGQGTKLEIK | – | – | – | – | – | – | – | – | – | – | – | – | – | – | – | – | – | – | – | – | MFI [5]: 44.7; MFI [6]: 32.7; MFI [7]: 79.4; MFI [8]: 126 |
| H4H1804N (antibody, human IgG4 S228P, V domains shown, human IgG4(S108P) form of H2M1804N) VH: QVQLHQWGAGLLKPSETLSLTCAVSGVSFSDYHWAWIRQSPGKGLEWIGDINHRGRTNYNPSLKSRVTISLDTSGNPFSLKLTSVTAADTAVYYCARDFPNWVFDSWGQGILVTVSS VL: EIVLSQSPGTLSLSPGERATLSCRASQSVSSSFLAWYQQYPGQAPRLLIYGASRRATGIPDRFRGSGSGTDFTLTISRLEPEDFAVYYCQQYGSSPLTFGGGTKVENK | 126 | 33.7 | 95% | 100% | 100% | 100% | 80% | 95% | 90% | 100% | 100% | 100% | 50% | 100% | 10% | 100% | 100% | 100% | 50% | 100% | IC50, reporter + 10,000 TL1A cells [3]: 3.99 nM; % Blocking IFN-g, D10, 1 ug/ml mAb [4]: 0%; % Blocking IFN-g, D10, 3 ug/ml mAb [4]: 80% |
| H4H1745P (antibody, human IgG4 S228P, V domains shown) VH: EVQLVESGGGLVQPGGSLRLSCAASGFTFSSYAMTWVRQAPGKGLEWVSGVSGRGGSTYYADSVKGRFTISRDNSKNTLYLQMNSLRAEDTAVYYCAYWDISSFDYWGQGTLVTVSS VL: DIQLTQSPSFLSASVGDRVTITCWASQGISTYLAWYQQKPGKTPKLLIYAASTLQSGVPSRFSGSGSGTDFTLTISSLQPEDFATYYCQQFNSYPLTFGGGTKVEIK | – | – | – | – | – | – | – | – | – | – | – | – | – | – | – | – | – | – | – | – | MFI [5]: 115; MFI [6]: 26.9; MFI [7]: 93.1; MFI [8]: 87.2 |
